Assay results reported in patent publication US20250382352A1 (SCG CELL THERAPY PTE, published 2025).
Positions count from the first letter of the chain named.

T1: HBsAg recombinant protein (hepatitis B virus)
T1 chain: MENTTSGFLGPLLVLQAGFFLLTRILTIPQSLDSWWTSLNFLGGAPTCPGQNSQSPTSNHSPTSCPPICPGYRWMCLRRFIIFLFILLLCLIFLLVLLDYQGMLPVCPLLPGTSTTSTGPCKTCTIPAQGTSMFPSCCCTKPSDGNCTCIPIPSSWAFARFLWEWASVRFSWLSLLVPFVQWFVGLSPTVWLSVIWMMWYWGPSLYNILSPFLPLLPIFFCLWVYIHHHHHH

B1: BsAb2-5-004 (bispecific antibody)
heavy: not shown
light: QTVVTQEPSFSVSPGGTVTLTCRSSTGAVTTSNYANWYQQTPGQAPRTLIGGTNKRAPGVPDRFSGSILGDKAALTITGAQADDESDYYCALWYSNLWVFGGGTKLTVLRTVAAPSVFIFPPSDEQLKSGTASVVCLLNNFYPREAKVQWKVDNALQSGNSQESVTEQDSKDSTYSLSSTLTLSKADYEKHKVYACEVTHQGLSSPVTKSFNRGEC
notes: also called VH1VL4
B2: BsAb2-6-005 (bispecific antibody)
heavy: not shown
light: B1 light with Y38V, T48G
notes: also called VH1VL5
B3: BsAb2-6-009 (bispecific antibody)
heavy: not shown
light: B1 light
notes: also called VH2VL4
B4: BsAb2-5-025 (bispecific antibody)
heavy: not shown
light: B1 light with Y38V, T48G
notes: also called VH5VL5
B5: BsAb2-6-014 (bispecific antibody)
heavy: not shown
light: B1 light
notes: also called VH3VL4
B6: BsAb2-6-029 (bispecific antibody)
heavy: not shown
light: B1 light
notes: also called VH6VL4 (printed VH6VLA)
B7: BsAb2-6-019 (bispecific antibody)
heavy: not shown
light: B1 light
notes: also called VH4VL4 (printed VH4VLA)
B8: BsAb2-5-030 (bispecific antibody)
heavy: not shown
light: B1 light with Y38V, T48G
notes: also called VH6VL5
B9: BsAb2-6-004 (bispecific antibody)
heavy: not shown
light: B1 light
notes: also called VH1VL4
B10: BsAb2-6-030 (bispecific antibody)
heavy: not shown
light: B1 light with Y38V, T48G
notes: also called VH6VL5
B11: BsAb2-6-024 (bispecific antibody)
heavy: not shown
light: B1 light
notes: also called VH5VL4
B12: BsAb2-5-020 (bispecific antibody)
heavy: not shown
light: B1 light with Y38V, T48G
notes: also called VH4VL5
B13: BsAb2-5-015 (bispecific antibody)
heavy: not shown
light: B1 light with Y38V, T48G
notes: also called VH3VL5
B14: BsAb2-5-014 (bispecific antibody)
heavy: not shown
light: B1 light
notes: also called VH3VL4
B15: BsAb2-6-025 (bispecific antibody)
heavy: not shown
light: B1 light with Y38V, T48G
notes: also called VH5VL5
B16: BsAb2-6-010 (bispecific antibody)
heavy: not shown
light: B1 light with Y38V, T48G
notes: also called VH2VL5
B17: BsAb2-5-005 (bispecific antibody)
heavy: not shown
light: B1 light with Y38V, T48G
notes: also called VH1VL5
B18: BsAb2-5-001 (bispecific antibody)
heavy: not shown
light: QTVVTQEPSLTVSPGGTVTLTCRSSTGAVTTSNYANWVQQKPGQAPRALIGGTNKRAPWTPARFSGSLLGDKAALTLSGVQPEDEAEYYCALWYSNLWVFGGGTKLTVLRTVAAPSVFIFPPSDEQLKSGTASVVCLLNNFYPREAKVQWKVDNALQSGNSQESVTEQDSKDSTYSLSSTLTLSKADYEKHKVYACEVTHQGLSSPVTKSFNRGEC
notes: also called VH1VL1
B19: BsAb2-6-002 (bispecific antibody)
heavy: not shown
light: B18 light with A48G, W59G
notes: also called VH1VL2
B20: BsAb2-5-002 (bispecific antibody)
heavy: not shown
light: B18 light with A48G, W59G
notes: also called VH1VL2
B21: BsAb2-5-006 (bispecific antibody)
heavy: not shown
light: B18 light
notes: also called VH2VL1
B22: BsAb2-5-023 (bispecific antibody)
heavy: not shown
light: B18 light with T2A, A48G, W59G, Y89F
notes: also called VH5VL3
B23: BsAb2-5-003 (bispecific antibody)
heavy: not shown
light: B18 light with T2A, A48G, W59G, Y89F
notes: also called VH1VL3
B24: BsAb2-6-023 (bispecific antibody)
heavy: not shown
light: B18 light with T2A, A48G, W59G, Y89F
notes: also called VH5VL3
B25: BsAb2-6-027 (bispecific antibody)
heavy: not shown
light: B18 light with A48G, W59G
notes: also called VH6VL2
B26: BsAb2-6-007 (bispecific antibody)
heavy: not shown
light: B18 light with A48G, W59G
notes: also called VH2VL2
B27: BsAb2-6-012 (bispecific antibody)
heavy: not shown
light: B18 light with A48G, W59G
notes: also called VH3VL2
B28: BsAb2-5-026 (bispecific antibody)
heavy: not shown
light: B18 light
notes: also called VH6VL1
B29: BsAb2-5-028 (bispecific antibody)
heavy: not shown
light: B18 light with T2A, A48G, W59G, Y89F
notes: also called VH6VL3
B30: BsAb2-6-003 (bispecific antibody)
heavy: not shown
light: B18 light with T2A, A48G, W59G, Y89F
notes: also called VH1VL3
B31: BsAb2-6-013 (bispecific antibody)
heavy: not shown
light: B18 light with T2A, A48G, W59G, Y89F
notes: also called VH3VL3
B32: BsAb2-5-022 (bispecific antibody)
heavy: not shown
light: B18 light with A48G, W59G
notes: also called VH5VL2
B33: BsAb2-5-008 (bispecific antibody)
heavy: not shown
light: B18 light with T2A, A48G, W59G, Y89F
notes: also called VH2VL3
B34: BsAb2-6-028 (bispecific antibody)
heavy: not shown
light: B18 light with T2A, A48G, W59G, Y89F
notes: also called VH6VL3
B35: BsAb2-5-007 (bispecific antibody)
heavy: not shown
light: B18 light with A48G, W59G
notes: also called VH2VL2
B36: BsAb2-6-008 (bispecific antibody)
heavy: not shown
light: B18 light with T2A, A48G, W59G, Y89F
notes: also called VH2VL3
B37: BsAb2-5-027 (bispecific antibody)
heavy: not shown
light: B18 light with A48G, W59G
notes: also called VH6VL2
B38: BsAb2-6-022 (bispecific antibody)
heavy: not shown
light: B18 light with A48G, W59G
notes: also called VH5VL2
B39: BsAb2-5-021 (bispecific antibody)
heavy: not shown
light: B18 light
notes: also called VH5VL1

Experiments:
Assay in all cases: ELISA, recombinant protein
[1] = molecular target: T1, HBsAg recombinant protein
Experimental: (§1) Anti-HBsAg/anti-CD3 bispecific antibodies generated in Example 1 are analyzed by standard ELISA techniques for their binding properties to HBsAg, human CD3E, and rhesus CD3ε recombinant protein, respectively.

[2] = molecular target: T2, rhesus CD3ε recombinant protein (rhesus)
T2 construct: also called rhesus CD38 [sic]
Experimental: as §1

[3] = molecular target: T3, human CD3ε recombinant protein (human, UniProt P07766 23-126)
T3 construct: also called human CD3E; huCD3ε
Experimental: as §1

T3 sequence (P07766 23-126 limits assumed): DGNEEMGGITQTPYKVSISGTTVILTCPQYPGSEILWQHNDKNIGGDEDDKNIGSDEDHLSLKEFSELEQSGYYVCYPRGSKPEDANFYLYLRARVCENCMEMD

Row | Binder | EC50 [1] [nM] | EC50 [2] [nM] | EC50 [3] [nM]
1 | B1 | 0.36 | – | –
2 | B2 | 0.45 | 0.18 | –
3 | B3 | 0.45 | – | –
4 | B4 | 0.2 | 0.25 | –
5 | B5 | 0.31 | – | –
6 | B6 | 0.48 | – | –
7 | B7 | 0.53 | – | –
8 | B8 | 0.15 | 0.23 | –
9 | B9 | 0.43 | – | –
10 | B10 | 0.48 | 0.13 | –
11 | B11 | 0.51 | – | –
12 | B12 | 0.16 | 0.26 | 0.28
13 | B13 | 0.17 | 0.27 | 0.27
14 | B14 | 0.2 | – | –
15 | B15 | 1.5 | 0.5 | –
16 | B16 | 0.46 | 0.23 | –
17 | B17 | 0.15 | 0.31 | –
18 | B18 | 0.23 | 0.72 | –
19 | B19 | 0.46 | 0.14 | –
20 | B20 | 0.16 | 0.3 | –

Row | Binder | EC50 [1] [nM] | EC50 [2] [nM] | EC50 [3] [nM]
21 | B21 | 0.9 | 2.12 | –
22 | B22 | 0.18 | 0.22 | –
23 | B23 | 0.21 | 0.34 | –
24 | B24 | 1.09 | 0.26 | –
25 | B25 | 0.72 | 0.21 | –
26 | B26 | 0.42 | 0.19 | –
27 | B27 | 0.45 | 0.24 | 0.32
28 | B28 | 0.18 | 2.09 | –
29 | B29 | 0.19 | 0.31 | –
30 | B30 | 0.47 | 0.17 | –
31 | B31 | 0.47 | 0.26 | 0.33
32 | B32 | 0.16 | 0.31 | –
33 | B33 | 0.19 | 0.24 | –
34 | B34 | 0.83 | 0.21 | –
35 | B35 | 0.23 | 0.4 | –
36 | B36 | 0.57 | 0.28 | –
37 | B37 | 0.16 | 0.28 | –
38 | B38 | 0.77 | 0.23 | –
39 | B39 | 0.14 | 3.88 | –
